{"source": "paper PMC9231621", "about": "(Proceedings of the National Academy of Sciences of the …, 2022)", "binders": {"B1": {"name": "MPV481 (antibody, V domains shown)", "VH": "QVQLVQSGGGLVKPGGSLRLSCAASGLPFNNAWMNWVRQAPGKGLEWVGRIKSKIDGGTTEYAAPVKGRFTISRDDSENTLYLQMNSLRTEDTAVYYCTTEYYALLSGNYSDCWGQGTLVTVSS", "VL": "IRLMTQSPFSLSLSPGERATLSCRASQSIKRAYLGWYQQKPGQAPRLLIYGASNRATGIPDRFSGSGSGTDFTLTISRLEPEDFAVYYCQQYGDSPGGSFGQGTKLEIR"}, "B2": {"name": "MPV454 (antibody, V domains shown)", "VH": "QVQLVESGGGLVKPGGSLRLSCSTSGFVFSSYAMHWVRQAPGKGLEHVSAISSTGDNTHYADSVKGRFTISRDNSRGRLYLQMTSVRPEDAALYYCVKDLYSGRFYYFLDDWGQGTRIIVSS", "VL": "DIQVTQSPSSLSASVGDRVTISCRASQNISNYLNWFQQRPGKAPKLLIYVASTLQSGAPSRFSGSGSGTDFTLTITDLQPEDFATYYCQQSYNTPPITFGQGTRLEIK"}, "B3": {"name": "MPV491 (antibody, V domains shown)", "VH": "QVQLQESGPGLVKSSQTLSLTCTVSGGSISSVTSHWTWIRQHPGKGLEWIGYIFSSGTTYYSPSLRSRLTMSVDTSKNQFSLQLSSVTAADTAMYYCARGIYCGDSCYKGTDYWGRGTLVTVSS", "VL": "IRLMTQTPVTLPVTPGEPASISCRSSQSLLHSNGYNYLDWYLQKPGQSPQLLIYRGSTRASGVPDRFSGSGSGTEFTLKISRVEAEDVGVYYCMQGLQTPYTFGQGTKLESR"}, "B4": {"name": "MPV485 (antibody, V domains shown)", "V domain 1": "QVQLQEPGPGLVKPSETLSLTCTVSGGSISSTNSFWGWVRQPPGKGLEWIGSIYYSGTTYYNSSLKSRVTISVDTSKNQFSLRLSSVTAADTAVYYCARQGLTSSWYDGSGLDVWG", "V domain 2": "SYELTQPPSVSVSPGQTASITCSGDKLGNKYACWYQQRPGQSPVLVIYQDTKRPSGIPERFSGSNSGNTATLTISGTQAMDEADYYCQAWDSNTVVFGGGTKLTVL"}, "B5": {"name": "MPV482 (antibody, V domains shown)", "VH": "QVQLVQSGGGVVQPGRSLRLSCAASGFTFSSFAMHWVRQAPGKGLEWVALISDDGNNKYHADSVKGRFTISRDSSKNTLYLQMNSLRGEDTAVYYCARDGSVVGAAAHCDHWGQGTLVTVSS", "VL": "SYELTQPPSVSVSPGQTARITCSGDALPNQCAYWYQQKPGLAPVLLIYKDKERPSGIPERFSGSISGTTVTLTISGVQAEDEADYYCQSSDSSSTVVFGGGTKLTVL"}, "B6": {"name": "MPV464 (antibody, V domains shown)", "VH": "QVQLQESGPGLVKPSQTLSLTCTVSGGSVRGGGDYWSWIRRPPGKGLEWIGHIYNSGTTFYNPSLKSRVTISIDTSKNQFSLKLRSVTAADTAVYYCGRVGSRATGLPDWIDPWGQGTLVTVSS", "VL": "SYELTQPPSVSVSPGQTATITCSGTNLGAKYSCWYQQKPGQSPVLVIFQDNKRASGIPARFSASTSGDTATLTISGTQVMDEADYFCQAWDSRTAVFGGGTTLTV"}, "B7": {"name": "MPV486 (antibody, V domains shown)", "VH": "QVQLVESGGHLVQSGGSLRLSCAASGFTFSNYILNWVRQAPGKGLEWISYITGGSSAIYYADSVKGRFTISRDDAKNSLYLQMNNLRAEDTAVYYCARSHGYDSSGYYYYFAMDVWGQGTTVTVSS", "VL": "QSVLTQPPSASGTPGQRVTISCSGSNSNIESNTVNWYQQIPGTAPKLLIYSDNRRPSGVPDRFSGSKSGTSASLAISGLQSEDEADYYCAAWDDSLIGYVFGTGTKVTV"}}}
{"target": "hMPV A1 F monomer (trypsinized monomeric prefusion hMPV F) (human metapneumovirus subgroup A1; …, UniProt H6X1Z1, strain)"}
{"binder": "B1", "binding result": "binds"}
{"binder": "B2", "binding result": "binds"}
{"binder": "B3", "binding result": "binds"}
{"binder": "B4", "binding result": "binds"}
{"binder": "B5", "binding result": "binds"}
{"binder": "B6", "binding result": "binds"}
{"binder": "B7", "binding result": "binds"}
{"target": "hMPV A1 F trimer (heated), postfusion hMPV F (human metapneumovirus subgroup A1; …, UniProt H6X1Z1, strain)"}
{"binder": "B1", "binding result": "binds"}
{"binder": "B2", "binding result": "binds"}
{"binder": "B3", "binding result": "binds"}
{"binder": "B4", "binding result": "binds"}
{"binder": "B5", "binding result": "binds"}
{"binder": "B6", "binding result": "binds"}
{"binder": "B7", "binding result": "binds"}
